Assay results as given in PMC5645086, “Analysis of the interaction of Plexin-B1 and Plexin-B2 with Rnd family proteins” (PLoS ONE, 2017).

T1: Rnd3-F124Y (GTP-binding domain, residues 16-200) (UniProt P61587 16-200, F124Y)
T1 construct: source: E. coli Rosetta 2 (DE3), purified in the same way as wild type Rnd3; not shown: His6, N-terminal, cleaved
T1 sequence (looked up): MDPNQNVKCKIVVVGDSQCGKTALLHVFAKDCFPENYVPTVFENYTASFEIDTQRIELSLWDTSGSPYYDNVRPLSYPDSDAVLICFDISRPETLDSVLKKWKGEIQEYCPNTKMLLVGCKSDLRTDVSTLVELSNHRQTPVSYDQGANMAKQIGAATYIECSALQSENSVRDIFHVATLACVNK

T2: Rnd3-Y60A (GTP-binding domain, residues 16-200) (UniProt P61587 16-200, Y60A)
T2 construct: source: E. coli BL21 (DE3), purified in the same way as wild type Rnd3; not shown: His6, N-terminal, cleaved
T2 sequence (looked up): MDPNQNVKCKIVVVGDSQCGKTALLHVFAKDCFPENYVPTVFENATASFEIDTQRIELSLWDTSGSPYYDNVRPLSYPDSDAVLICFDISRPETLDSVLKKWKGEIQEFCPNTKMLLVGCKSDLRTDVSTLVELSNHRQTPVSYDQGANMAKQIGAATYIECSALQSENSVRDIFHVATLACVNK

T3: Rnd3-N86R (GTP-binding domain, residues 16-200) (UniProt P61587 16-200, N86R)
T3 construct: source: E. coli BL21 (DE3), purified in the same way as wild type Rnd3; not shown: His6, N-terminal, cleaved
T3 sequence (looked up): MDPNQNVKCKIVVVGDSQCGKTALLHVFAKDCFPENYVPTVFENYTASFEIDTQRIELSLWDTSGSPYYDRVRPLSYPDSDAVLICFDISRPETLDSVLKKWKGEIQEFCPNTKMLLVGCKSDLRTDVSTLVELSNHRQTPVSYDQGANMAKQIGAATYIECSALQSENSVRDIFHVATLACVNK

T4: Rnd3 GTP-binding domain (residues 16-200), wild type (UniProt P61587 16-200)
T4 construct: source: E. coli BL21 (DE3), purified (Nickel-NTA, TEV cleavage; in some cases ion exchange or size exclusion chromatography); not shown: His6, N-terminal, cleaved
T4 sequence (looked up): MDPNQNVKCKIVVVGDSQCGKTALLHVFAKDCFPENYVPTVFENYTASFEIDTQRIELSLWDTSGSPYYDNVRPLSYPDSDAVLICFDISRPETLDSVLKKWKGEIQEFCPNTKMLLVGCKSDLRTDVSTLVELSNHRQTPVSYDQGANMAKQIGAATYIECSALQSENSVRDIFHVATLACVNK

T5: Rnd1 GTP-binding domain (residues 1-191) (UniProt Q92730 1-191)
T5 construct: source: E. coli Rosetta 2 (DE3), purified (Nickel-NTA, TEV cleavage; in some cases ion exchange or size exclusion chromatography); not shown: His6, N-terminal, cleaved
T5 sequence (looked up): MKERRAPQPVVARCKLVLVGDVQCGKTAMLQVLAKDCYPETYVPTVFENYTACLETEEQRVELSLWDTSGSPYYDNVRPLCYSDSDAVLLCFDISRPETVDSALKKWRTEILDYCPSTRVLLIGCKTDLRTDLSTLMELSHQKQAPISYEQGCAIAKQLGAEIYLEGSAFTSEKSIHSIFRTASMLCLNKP

T6: Rnd2 GTP-binding domain (residues 2-184) (UniProt P52198 2-184)
T6 construct: source: E. coli BL21 (DE3), purified (Nickel-NTA, TEV cleavage; in some cases ion exchange or size exclusion chromatography); not shown: His6, N-terminal, cleaved
T6 sequence (looked up): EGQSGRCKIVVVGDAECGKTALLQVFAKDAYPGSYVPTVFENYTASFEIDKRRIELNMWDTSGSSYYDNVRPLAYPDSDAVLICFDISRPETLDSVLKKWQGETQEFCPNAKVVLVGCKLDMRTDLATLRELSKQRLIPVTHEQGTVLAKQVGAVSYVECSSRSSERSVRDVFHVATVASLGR

T7: Rnd1 GTP-binding domain (residues 1-191) (UniProt Q92730 1-191)
T7 construct: Cloned into pETDuet-1; tag removed with TEV protease; source: E. coli Rosetta 2 (DE3), purified (Nickel-NTA chromatography, TEV cleavage; in some cases ion exchange or size exclusion chromatography); not shown: His6, N-terminal, cleaved
T7 sequence (looked up): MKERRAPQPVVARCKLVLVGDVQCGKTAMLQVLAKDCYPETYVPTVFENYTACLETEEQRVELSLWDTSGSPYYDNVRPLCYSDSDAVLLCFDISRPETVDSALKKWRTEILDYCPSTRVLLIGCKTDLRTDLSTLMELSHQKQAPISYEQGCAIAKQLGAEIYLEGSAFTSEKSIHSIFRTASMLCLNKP


What was measured:
Rnd2 (Homo sapiens) = Rnd2 (Homo sapiens) (UniProt P52198); details: cited from earlier work
Rnd2 (Homo sapiens), sequence (P52198 1-224): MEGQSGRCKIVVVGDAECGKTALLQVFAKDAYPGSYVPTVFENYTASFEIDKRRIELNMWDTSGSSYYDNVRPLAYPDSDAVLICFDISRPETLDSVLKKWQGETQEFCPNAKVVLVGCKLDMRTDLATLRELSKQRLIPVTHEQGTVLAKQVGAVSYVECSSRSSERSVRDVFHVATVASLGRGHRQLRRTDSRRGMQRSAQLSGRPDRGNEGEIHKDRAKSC

[1] = biological target: T1, Rnd3-F124Y (GTP-binding domain, …); experiment: ITC; Plexin-B-RBD (400-600 uM, syringe) titrated into Rnd protein (40-60 uM, cell); 25°C; buffer 2: 50 mM sodium phosphate pH 7.0, 150 mM NaCl, 4 mM MgCl2, 3 mM DTT; independent binding sites model; details: both partners purified
[2] = biological target: T2, Rnd3-Y60A (GTP-binding domain, residues …); experiment: as above; details: both partners purified
[3] = biological target: T3, Rnd3-N86R (GTP-binding domain, residues …); experiment: as above; details: both partners purified
[4] = biological target: T4, Rnd3 GTP-binding domain (residues …); experiment: as above; details: both partners purified
[5] = biological target: T5, Rnd1 GTP-binding domain (residues 1-191); experiment: as above; details: both partners purified
[6] = biological target: T6, Rnd2 GTP-binding domain (residues 2-184); experiment: as above; details: both partners purified
[7] = biological target: the molecule itself; experiment: ITC; control dilution: Plexin-B1-RBD titrated into buffer alone, same conditions as the binding titrations; dimer to monomers
[8] = biological target: T7, Rnd1 GTP-binding domain (residues 1-191); experiment: ITC; Plexin-B1-RBD in the syringe titrated into Rnd1 in the cell; low salt buffer 1: 50 mM sodium phosphate pH 7.0, 50 mM NaCl, 4 mM MgCl2, 3 mM DTT, 25°C; independent binding sites model; mean and SD of 5 fitted binding curves; details: both partners purified

Plexin-B1 RBD, sequence (O43157 1743-1862): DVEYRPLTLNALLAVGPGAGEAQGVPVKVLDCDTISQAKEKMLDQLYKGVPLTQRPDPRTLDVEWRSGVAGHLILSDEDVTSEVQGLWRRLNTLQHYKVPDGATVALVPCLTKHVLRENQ

Row | Kd [1] [µM] | dH [1] [kcal/mol] | stoichiometry N [1] | Kd [2] [µM] | dH [2] [kcal/mol] | stoichiometry N [2] | Kd [3] [µM] | dH [3] [kcal/mol] | stoichiometry N [3] | Kd [4] [µM] | dH [4] [kcal/mol] | stoichiometry N [4] | Kd [5] [µM] | dH [5] [kcal/mol] | stoichiometry N [5] | Kd [6] [µM] | dH [6] [kcal/mol] | stoichiometry N [6] | Molecule | further results
1 | – | – | – | – | – | – | – | – | – | – | – | – | – | – | – | – | – | – | Plexin-B1 RBD (from UniProt O43157) | Kd (Rnd2 (Homo sapiens)): > 20 µM
2 | 2.97 | -7.73 | 1.14 | 3.06 | -5.64 | 1.06 | 3.86 | -7.37 | 1.13 | 3.01 | -9.33 | 1.23 | 11.1 | -6.67 | 1.05 | 4.93 | -4.29 | 1.15 | Plexin-B2-RBD (Rho-binding domain of Plexin-B2, residues 1452-1562) (domain or fragment, UniProt O15031 1452-1562, looked up, Vector pETDuet-1; tag removed with TEV protease; source: E. coli BL21 (DE3), purified (Nickel-NTA, TEV cleavage; in some cases ion exchange or size exclusion chromatography); not shown: His6, N-terminal, cleaved) GLLGDDVEYAPLTVSVIVQDEGVDAIPVKVLNCDTISQVKEKIIDQVYRGQPCSCWPRPDSVVLEWRPGSTAQILSDLDLTSQREGRWKRVNTLMHYNVRDGATLILSKVG | –
3 | 4.6 | -8.65 | 1.04 | 7.26 | -2.76 | 1.02 | 8.12 | -5.53 | 0.91 | 6.62 | -9.73 | 1.07 | 2.37 | -15.6 | 0.85 | 7.64 | -7.33 | 1.16 | Plexin-B1-RBD (Rho-binding domain of Plexin-B1, residues 1746-1851), histidine-tagged (domain or fragment, UniProt O43157 1746-1851, looked up, A TEV protease site lies between the hexahistidine tag and the domain; Vector pETDuet-1; also called HisPlexin-B1; Plexin-B-RBD; source: E. coli BL21 (DE3), purified (Nickel-NTA; in some cases ion exchange or size exclusion chromatography); not shown: His6, N-terminal, kept) YRPLTLNALLAVGPGAGEAQGVPVKVLDCDTISQAKEKMLDQLYKGVPLTQRPDPRTLDVEWRSGVAGHLILSDEDVTSEVQGLWRRLNTLQHYKVPDGATVALVP | binding result [7]: binds
4 | – | – | – | – | – | – | – | – | – | – | – | – | – | – | – | – | – | – | Plexin-B1-RBD (Rho-binding domain of Plexin-B1, residues 1746-1851), histidine-tagged (domain or fragment, UniProt O43157 1746-1851, looked up, A TEV protease cleavage site lies between the hexahistidine tag and the domain; removal of the tag was inefficient for Plexin-B1-RBD, so the tag was kept; Cloned into pETDuet-1; also called HisPlexin-B1; source: E. coli BL21 (DE3), purified (Nickel-NTA chromatography; in some cases ion exchange or size exclusion chromatography); not shown: His6, N-terminal, kept) YRPLTLNALLAVGPGAGEAQGVPVKVLDCDTISQAKEKMLDQLYKGVPLTQRPDPRTLDVEWRSGVAGHLILSDEDVTSEVQGLWRRLNTLQHYKVPDGATVALVP | Kd [8]: 5.37 µM; stoichiometry N [8]: 0.94
